For two substances, stoichiometry N results are on record in publication PMC3482105.

Assay [1] deals with GCaMP2-LIA. Description: crystal structure.
Assay [2] deals with GCaMP5H. Description: crystal structure.

As a reminder, the stoichiometry N is the number of molecules, sites or subunits per partner or assembly. In assay [1], GCaMP2-LIA gave a stoichiometry N of 2.
The substance GCaMP5H returned a stoichiometry N in assay [2] of 2.
